Measured values: patent US10975142B2, “Endotrophin neutralization and use thereof” (THE BOARD OF REGENTS OF THE UNIVERSITY OF TEXAS SYSTEM, priority 2013, dated 2021)
Blank lines part the entries; values can stand above or below the molecule they belong to.

Tests used:
Met-1 cells [1] = test: Mitotic Index Assay with endotrophin; format: cell-based, mouse; conditions: Met-1, purified ETP, 24 hours
Experimental: (§1) FIGS. 15A-15D. Endotrophin has a limited effect on tumor cell proliferation. FIG. 15A. […] An equal number of cancer cells were freshly isolated from tumor tissues of PyMT (ctrl-cancer cells) and PyMT/endotrophin (ETP^+-cancer cells) and implanted into WT mice (1×10^6 cells/mouse). Tumor volume was determined 1 month post-implantation. Quantitative results are represented as mean±SEM (n=7/group). p=n.s vs. Ctrl-cancer cells by unpaired t-test. FIG. 15B. Met-1 cells were seeded into the 96 well plates and incubated with DMEM/10% FBS/PBS, DMEM/10% FBS/endotrophin, or conditioned media acquired from HEK293 or HEK293/endotrophin-overexpressing cells for 24 hours. Mitotic activity was measured with a Mitotic Index Assay Kit (Active Motif) following the manufacturer's protocol. Paclitaxel (1 μM) was used as a positive control of mitosis. Quantified results are represented as mean±SEM (n=10/group) p=n.s vs. PBS or Ctrl-media by unpaired t-test. FIG. 15C. Human breast cancer cells, MCF7 (0.1×10^5) were plated in the 24 well plates with or without recombinant endotrophin protein and cell numbers were counted over time. The quantification of results is represented as mean±SEM (n=6/group, triplicate). p=n.s vs. PBS by unpaired t-test. FIG. 15D. […] Endomucin positive area was quantified and represented as mean±SEM (multiple images, n=4/group). ***p=0.0008 vs. ctrl by unpaired t-test. Scale bars: 200 μm.

[2] = analysis of ETP homing (IRD-800 labeled ETP, tail vein); format: in vivo, mouse
Experimental: FIGS. 2A-2D: ETP levels in human cancer specimens and its target tissues. (FIG. 2A and FIG. 2B) Human cancer tissues compared with those of benign tissues were immunostained with human ETP-specific polyclonal antibody. Human samples for breast cancer (FIG. 2A) and colon cancer (FIG. 2B) were analyzed. […] (FIG. 2C and FIG. 2D) Whole body in vivo imaging of injected ETP. IRD-800 fluorescence-labeled ETP protein (10 μg) was intravenously injected into WT, 8-week-old PyMT, and 10-week-old PyMT mice by tail vein. (FIG. 2C) ETP levels were visualized by the Licor Infrared Scanner 10-90 minutes after injection. Arrows indicate mammary tumors. L, liver; B, bladder; T, tumor. IgG was used as a negative control. (FIG. 2D) Tissues were excised 2 hours after injection, and ETP-positive fluorescence signals were determined with a Licor Infrared Scanner. Quantified values were normalized to total area and represented as percentage of WT. ***P<0.001.
The homing of ETP in circulation was determined by injecting fluorescently labeled ETP into tail veins. ETP and IgGs were labeled with IRDye800 CW NHS Ester (Licor Bioscience) at a 1:1 molar ratio (dye/protein), according to the manufacturer's instructions. Whole-body fluorescence images were collected on the Odyssey scanner (Licor Bioscience). […] Quantified values were normalized to the total area of each organ.

ETP = target: T1, ETP (Mus musculus, UniProt E9PWQ3); test: in vivo Matrigel bioassay (stromal cell recruitment into plugs); conditions: recombinant ETP 100 ng/plug vs PBS, mammary fat pads of WT mice
T1 sequence (E9PWQ3 with tags, fused parts or gaps limits assumed): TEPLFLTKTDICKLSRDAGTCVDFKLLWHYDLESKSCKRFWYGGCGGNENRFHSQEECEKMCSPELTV
Experimental: (§2) FIGS. 7A-7I: ETP acts as a chemokine augmenting tumor growth. […] Tumor volume was determined 1 month after implantation (representative images). Data represent mean±SEM (n=5 per group). ***P<0.001, unpaired t test. (FIG. 7B) In vivo Matrigel bioassay. Matrigel (50 μl) was mixed with ETP (100 ng/plug) or PBS and implanted into WT mice in the presence of IgG, 1D11, or 10B6 (20 μg/plug). 2 days after implantation, plugs were excised and stained for FIG. 7H & FIG. 7E. Scale bars: 100 μm. (FIGS. 7C-7H) Cancer cells were plated in the bottom chamber 1 day prior to seeding MS-1 cells (5×10^5 cells/well) and macrophages (1×10^5 cells/well) atop the membrane chamber in Transwell and incubated for 18-24 hours (FIG. 7C). (FIGS. 7D, 7E, 7F, 7G) Representative images of multiple independent experiments. Scale bars: 100 μm. (FIG. 7H) Quantitation (mean±SEM; n=3 per group). ***P<0.001, […], unpaired t test. (FIG. 7I) MS-1 migration assay. MS-1 cells (5×10^5 cells/well) were plated atop the chamber in Transwell and incubated for 24 hours. Chemotaxis was set up by following cell migration from DMEM/serum-free to DMEM/2% FBS/PBS or DMEM/2% FBS/ETP protein (1 μg/well). Images are representative of multiple independent experiments. Data represent mean±SEM (n=3 per group). ***P=0.008, unpaired t test. Scale bars: 100 μm.

MCF7 = test: cell number counts with recombinant endotrophin protein; format: cell-based, human; conditions: MCF-7, purified ETP
Experimental: as §1

MS-1 cells = test: MS-1 migration assay (Transwell); format: cell-based, mouse; conditions: ETP protein 1 μg/well, 24 hours
Experimental: as §2, with “Chemotaxis was set up by following cell migration from DMEM/serum-free to DMEM/2% FBS/PBS or DMEM/2% FBS/ETP protein (1 μg/well). Images are representative of multiple independent experiments. Data represent mean±SEM (n=3 per group). ***P=0.008, unpaired t test. Scale bars: 100 μm.” left out
Thioglycollate-elicited macrophages or MS-1 in serum-free media were loaded into the upper chamber of a Transwell plate (8 μm pore size; Costar). […] 18 hours later, cells on the underside of the membrane were fixed with 10% formalin, stained with hematoxylin, and counted. […]

Met-1 cells [3] = test: allografts of Met-1 cells with ETP or PBS and 1D11 or IgG in a Matrigel plug; format: in vivo, mouse; conditions: ETP 20 ng/plug vs PBS
Experimental: FIGS. 6A-6H: ETP augments metastasis through enforcing TGF-β-dependent EMT. (FIG. 6A) E-cadherin immunostaining for tumor tissues from PyMT and PyMT/ETP. (FIG. 6B and FIG. 6C) SBE-luciferase reporter assay. See Supplemental Methods for details. Data represent fold increase (3 independent experiments). **P<0.01, *P<0.05, 2-way ANOVA. pRA-ctrl, empty; pRA-sETP, secretion form; pRA-ETP, intracellular form. (FIGS. 6D-6G) Allografts of Met-1 cells in the presence of either ETP (20 ng/plug) or PBS mixed with 1D11 or IgG (10 μg/plug) within a Matrigel plug. 10 days after implantation, additional 1D11 or IgG (100 μg) was i.p. injected once a week during tumor progression. (FIG. 6D) Tumor volumes represent means±SEM (n=5 per group). *P<0.05, 2-way ANOVA. (FIG. 6E) H&E staining. The ratio of stromal area in tumor tissues was quantified. Data represent mean±SEM (n=5 per group). *P<0.05, unpaired t test. T; tumor and S; stroma. (FIG. 6F) Fibrosis was determined by Masson's Trichrome C stain. Data represent mean±SEM (n=5 per group). **P<0.01, ***P<0.001, unpaired t test. (FIG. 6G) Western blotting for EMT markers E-cadherin, vimentin, and α-SMA. β-actin, loading control. Data represent fold increase (n=5 per group). *P<0.05, **P<0.01, ***P<0.001, unpaired t test. […] 20 days post injection, metastasized cancer cells in the lung tissues were determined by fluorescence intensity. […]

[4] = target: T2, native form of endotrophin protein (Mus musculus, UniProt E9PWQ3); test: capture of IRD-800 labeled native endotrophin by monoclonal antibodies (Protein G Sepharose pull-down); format: binding; conditions: 2 hours at room temperature, rat-IgG as control
T2 construct: made in house; purified from conditioned media by gel filtration
T2 sequence (E9PWQ3 with tags, fused parts or gaps): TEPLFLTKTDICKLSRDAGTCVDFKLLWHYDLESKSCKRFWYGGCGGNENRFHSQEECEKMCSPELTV
From the text: FIGS. 9A-9C. Generation of endotrophin-specific antibodies. FIG. 9A. HEK-293 cell produced mouse endotrophin was subjected to Western blotting using rabbit anti-mouse endotrophin polyclonal antibody. FIG. 9B. Bacterially produced GST-fused recombinant human endotrophin protein was subjected to western blotting using a rabbit anti-human endotrophin polyclonal antibody. GST protein was used as a negative control. The arrow points at endotrophin. FIG. 9C. […] IRD (infrared dye)-800 labeled native form of endotrophin protein was incubated with either endotrophin monoclonal antibodies, including 4D1, 4F8, 10B6-A11, 10B6-B5, and 10B6-C3 or a rat-IgG for 2 hours at room temperature and subsequently incubated with Protein G Sepharose for 1 hour. The protein-Sepharose complex was separated on a 10-20% Tricine gel after 3 times washing with PBS. Captured endotrophin protein was visualized on a Licor Odyssey Infrared Scanner (Licor Bioscience). Green color represents the IRD800 channel.

stromal cells recruited into Matrigel plugs (ETP): significantly more stromal cells
B1: ETP: cleaved C5 fragment of the COL6α3 chain, used as recombinant or purified protein (protein)
chain: TEPLFLTKTDICKLSRDAGTCVDFKLLWHYDLESKSCKRFWYGGCGGNENRFHSQEECEKMCSPELTV
cell proliferation (mitotic activity) (Met-1 cells [1]): not affected | whole body in vivo distribution of labeled ETP ([2]; 10 μg i.v., PyMT mice, compared with control-labeled IgGs): predominantly observed in tumor lesions | ETP fluorescence in excised tissues relative to mammary glands of WT mice ([2]; tissues excised 2 hours after injection): highly enriched in mammary tumor tissues | cell proliferation (cell numbers over time) (MCF7): not affected | MS-1 cells recruited (migration) vs controls (MS-1 cells): twice as many | tumor growth for Met-1 cells (Met-1 cells [3]): significantly enhanced

capture of the native form of endotrophin protein [4]: efficiently capture
B2: 10B6-A11: rat anti-mouse endotrophin monoclonal antibody (antibody, V domains shown)
VH: QVQLQQSGPELAKPGSSVKISCKASGYTFTSYEMHWIKQRPGQGLEWIGYIYPESGSTGYNEKFKGKATLTVDKSSPTAYMQLSSLTPDNSAVYFCTRGLRVLGYVMDVWGHGTSVTVSS
VL: DVQLTQSPSFLSASVGDRVTINCKASQNINKYLNWYQQKLGEAPKRLIYNTNNLQTGIPSRFSGSASGTDYTLTISSLHPEDFATYFCLQHSSLYTFGAGTKLELK

capture of the native form of endotrophin protein [4]: efficiently capture
B3: 10B6-B5: rat anti-mouse endotrophin monoclonal antibody (antibody, V domains shown)
VH: QVQLQQSGPELAKPGSSVKISCKASGYTFTSYEMHWIKQRPGQGLEWIGYIYPESGSTGYNEKFKGKATLTVDKSSPTAYMQLSSLTPDNSAVYFCTRGLRVLGYVMDVWGHGTSVTVSS
VL: DVQLTQSPSFLSASVGDRVTINCKASQNINKYLNWYQQKLGEAPKRLIYNTNNLQTGIPSRFSGSASGTDYTLTISSLHPEDFATYFCLQHSSLYTFGAGTKLELK

capture of the native form of endotrophin protein [4]: efficiently capture
B4: 10B6-C3: rat anti-mouse endotrophin monoclonal antibody (antibody, V domains shown)
VH: QVQLQQSGPELAKPGSSVKISCKASGYTFTSYEMHWIKQRPGQGLEWIGYIYPESGSTGYNEKFKGKATLTVDKSSPTAYMQLSSLTPDNSAVYFCTRGLRVLGYVMDVWGHGTSVTVSS
VL: DVQLTQSPSFLSASVGDRVTINCKASQNINKYLNWYQQKLGEAPKRLIYNTNNLQTGIPSRFSGSASGTDYTLTISSLHPEDFATYFCLQHSSLYTFGAGTKLELK
